Reference: US20150110774A1, “S100 PROTEIN INHIBITORS FOR TREATING LEUKEMIA” (UNIVERSITE LAVAL, priority 2004, published 2015)

B1: S100A8: recombinant S100 calcium-binding protein, Myeloid Related Protein (MRP) (protein, UniProt P05109 1-93, looked up)
Protein S100-A8: MLTELEKALNSIIDVYHKYSLIKGNFHAVYRDDLKKLLETECPQYIRKKGADVWFKELDINTDGAVNFQEFLILVIKMGVAAHKKSHEESHKE
B2: S100A9: recombinant S100 calcium-binding protein, Myeloid Related Protein (MRP) (protein, UniProt P06702 1-114, looked up)
Protein S100-A9: MTCKMSQLERNIETIINTFHQYSVKLGHPDTLNQGEFKELVRKDLQNFLKKENKNEKVIEHIMEDLDTNADKQLSFEEFIMLMARLTWASHEKMHEGDEGPGHHHKPGLGEGTP
B3: S100A8/A9: heterodimer of S100A8 and S100A9 (protein, UniProt P05109 1-93; P06702 1-114, looked up)
Protein S100-A8: MLTELEKALNSIIDVYHKYSLIKGNFHAVYRDDLKKLLETECPQYIRKKGADVWFKELDINTDGAVNFQEFLILVIKMGVAAHKKSHEESHKE
Protein S100-A9: MTCKMSQLERNIETIINTFHQYSVKLGHPDTLNQGEFKELVRKDLQNFLKKENKNEKVIEHIMEDLDTNADKQLSFEEFIMLMARLTWASHEKMHEGDEGPGHHHKPGLGEGTP

What was measured:
advanced leukemia = settings: clinical studies; cited from earlier work
[1] = test system: bone marrow cells from AML and CML patients; test: AML/CML patient bone marrow cell proliferation (colony assay); format: cell-based, human; settings: FIG. 4
Description: PBMC and BM (5×10^4 cells) were incubated at 37° C. in methylcellulose-based media containing 1% methylcellulose in Iscove MDM, 30% foetal bovine serum, 1% BSA, 10^−4 M 2-mercaptoethanol and 2 mM of L-glutamine supplemented (+CSF) or not (−CSF) by 50 ng/mL of rhSCF, 10 ng/mL of rhIL-3, and 10 ng/mL of rhGM-CSF to support optimal growth of CFU-Granulocyte Macrophage (CFU-GM) CFU-Granulocyte (CFU-G) and CFU-Macrophage (CFU-M). Different concentrations of S100A12, S100A8, and/or S100A9 were also added to the cells. After 15 days, colony-forming units were counted.
Bone marrow cells were obtained by aspirates from a CML patient. (A) The cells were cultured for 14 days in Iscove medium supplemented with 15% FCS and 2% methylcellulose, in presence of increasing concentrations of S100A12. (B) The cells were culture for 14 days in presence of 10 pg/ml of S100A8, S100A9, S100A8/A9, or S100A12 in a methylcellulose medium supplemented or not with 50 ng/ml of Stem cell factor, 10 ng/ml of GM-CSF, and 10 ng/ml of IL-3. The results are the number of colonies per 30 mm^2 petri dishes (FIG. 4). As observed in Example III, different S100 proteins have stimulatory activity on bone marrow cells.

leukocytes = test: Leukocyte accumulation in the murine air pouch model; format: in vivo, mice; settings: air pouch exudate; remainder monocytes
Description: S100A8, S100A9, and S100A12 induce an inflammatory reaction when injected in the murine air pouch model. In this model, sterile air is injected subcutaneously under the dorsum of mice on days 0 and 3. On day 7, an enclosed environment is formed in which it is possible to inject pro-inflammatory products. Injection of S100A8, S100A9, S100A12, or S100A8/A9 in the air pouch leads to the accumulation within 3 hrs of up to 8×10^6 leukocytes (FIG. 1). Leukocytes recruited consists of neutrophils (80%) and monocytes. The total number of neutrophils circulating in the peripheral blood of a mouse is estimated at 2.5×10^6 cells. […] This is confirmed by i.v. injections of S100 proteins which leads to the release of neutrophils from the bone marrow to the peripheral blood (FIG. 2). […] More importantly, the concentrations at which they exerted these functions are similar to those found in the plasma of patients suffering, for example but not limited to, from AML and CML.
Air pouches were raised in 10 to 12 week-old CD-1 mice. One ml of murine S100A8 ([…], 5 nM) or phosphate buffered saline (PBS) were injected into the air pouches and the migrating leukocytes were harvested by washing with PBS-EDTA 5 mM at various times. Leukocytes in exudates were counted, centrifuged on microscope slides and stained with Wright-Giemsa. Data represent the mean±SEM of at least 7 mice (FIG. 1).

bone marrow cells = test: Bone marrow cell proliferation (colonies in methylcellulose, 14 days); format: cell-based, mice; settings: mouse bone marrow cells, FIG. 3
Description: Bone marrow cells were collected by flushing PBS through incisions made in the femurs of mice, followed by disaggregation. After removing contaminating erythrocytes by hypoosmotic lysis, bone marrow cells were cultured in semi-solid state in Methocult methylcellulose-based media (Stemcell technologies) for 14 days in presence of increasing concentrations of S100A8. At the end of the incubation period, the colonies were numerated. Similar results were obtained with S100A9, S100A8/A9, and S100A12. Results are from one experiment representative of 2 others (FIG. 3). All monomers and heterodimers have shown a growth stimulatory activity on bone marrow cells.

| Molecule | activity in patients with advanced leukemia (advanced leukemia) | proliferation of bone marrow cells from AML and CML patients [1] | neutrophils among leukocytes recruited (leukocytes) [%] | proliferation of bone marrow cells (bone marrow cells) |
| --- | --- | --- | --- | --- |
| Nc1ccn([C@@H]2CO[C@H](CO)O2)c(=O)n1 [β-L-OddC, (−)-β-L-Dioxolane-Cytidine] | significant activity |  |  |  |
| B1 |  | proliferation also occurs | 80 | increase of proliferation |
| B2 |  | proliferation also occurs | 80 | increase of proliferation |
| B3 |  |  | 80 | increase of proliferation |
